One block for each binder: values may come before it.
Experiments:
[1] = biological target: T1, CCL25 (UniProt O15444 24-150); assay: MicroScale Thermophoresis, 5 nM NT647-labeled receptor against a gradient of ligand, 25 C
T1 sequence (looked up): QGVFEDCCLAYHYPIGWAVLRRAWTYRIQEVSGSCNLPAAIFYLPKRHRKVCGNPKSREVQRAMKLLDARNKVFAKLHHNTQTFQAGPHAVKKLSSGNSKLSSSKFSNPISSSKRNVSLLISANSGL
Description: (§1) The affinity of QTY modified cytokine receptor fused with Fc of IgG for their respective native ligands was measured using MicroScale Thermophoresis (MST). Changes in thermophoretic movement for labeled proteins upon ligand-binding were recorded and plotted as a function of ligand concentration.
(§2) MicroScale Thermophoresis (MST) is an optical method detecting changes in thermophoretic movement and TRIC of the protein-attached fluorophore upon ligand binding. Active labelled proteins contribute to the thermophoresis signal upon ligand binding. […] Herein ligand binding experiments were carried out with 5 nM NT647-labeled protein in 1×PBS, 10 mM DTT buffer with different concentration of arginine, against a gradient of respective ligands on a Monolith NT.115 pico instrument at 25° C. Synthesized receptors were labeled with Monolith NT™ 2nd generation protein labeling kit RED-NHS (NanoTemper Technologies) so as to obtain unique fluorescent signals. MST time traces were recorded and analyzed to obtain the highest possible signal-to-noise levels and amplitudes, >5 Fnorm units. The recorded fluorescence was plotted against the concentration of ligand, and curve fitting was performed using the Kd fit formula derived from the law of mass action. For clarity, binding graphs of each independent experiment were normalized to the fraction bound (0=unbound, 1=bound). […]

[2] = biological target: T2, IL8 (UniProt P10145 28-99, limits assumed); assay: as above
T2 sequence (looked up): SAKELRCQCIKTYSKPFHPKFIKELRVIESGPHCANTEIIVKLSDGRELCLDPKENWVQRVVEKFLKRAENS
Description: as §1, §2

- Kd [1]: 37.2 nM
B1: CCR9-QTY Fc (Fc fusion)
chain: MTPTDFTSPIPNMADDYGSESTSSMEDYVNFNFTDFYCEKNNVRQFASHYQPPQYWQTYTTGAQGNSQTTQTYWYCTRVKTMTDMYQQNQATADQQYQTTQPYWATAAADQWKFQTFMCKTTNSMYKMNYYSCTQQTMCTSTDRYTATAQAMRAHTWREKRQQYSKMTCYTTWTQAAAQCTPETQYSQIKEESGIAICTMVYPSDESTKQKSATQTQKTTQGYYQPYTTMACCYTTTTHTQTQAKKSSKHKAQKTTTTTQTTYTQSQYPYNCTQQTQTTDAYAMFISNCATSTNTDTCYQTTQTTAYYHSCQNPTQYTYTGERFRRDLVKTLKNLGCISQAQWVSFTRREGSLKLSSMLLETTSGALSLTETSQVAPAHHHHHHHHHHTETSQVAPAHHHHHHHHHHGSKLVDPRGPTIKPCPPCKCPAPNLLGGPSVFIFPPKIKDVLMISLSPIVTCVVVDVSEDDPDVQISWFVNNVEVHTAQTQTHREDYNSTLRVVSALPIQHQDWMSGKEFKCKVNNKDLPAPIERTISKPKGSVRAPQVYVLPPPEEEMTKKQVTLTCMVTDFMPEDIYVEWTNNGKTELNYKNTEPVLDSDGSYFMYSKLRVEKKNWVERNSYSCSVVHEGLHNHHTTKSFSRTPGK
modifications: labeled with NT647 fluorescent dye (Monolith NT 2nd generation protein labeling kit RED-NHS)
notes: also called Fc fusion QTY CCR9 variant receptor protein

- Kd [2]: 60.3 nM
B2: CXCR2-QTY Fc (Fc fusion)
chain: MEDFNMESDSFEDFWKGEDLSNYSYSSTLPPFLLDAAPCEPESLEINKYYTTTTYAQTYQQSQQGNSQTMQTTQYSRVGRSVTDTYQQNQAQADQQYAQTQPTWAASKVNGWIFGTFLCKTTSQQKETNYYSGTQQQACTSTDRYLAIVHATRTLTQKRYLVKYTCQSTWGQSQQQAQPTQQYRRTVYSSNVSPACYEDMGNNTANWRMQQRTQPQSYGYTQPQQTMQYCYGFTLRTLFKAHMGQKHRAMRTTYATTQTYQQCWQPYNQTQQADTLMRTQVIQETCERRNHIDRAQDATETQGTQHSCQNPQTYAYTGQKFRHGLLKILAIHGLISKDSLPKDSRPSFVGSSSGHTSTTLTETSQVAPAHHHHHHHHHHGSKLVDPRGPTIKPCPPCKCPAPNLLGGPSVFIFPPKIKDVLMISLSPIVTCVVVDVSEDDPDVQISWFVNNVEVHTAQTQTHREDYNSTLRVVSALPIQHQDWMSGKEFKCKVNNKDLPAPIERTISKPKGSVRAPQVYVLPPPEEEMTKKQVTLTCMVTDFMPEDIYVEWTNNGKTELNYKNTEPVLDSDGSYFMYSKLRVEKKNWVERNSYSCSVVHEGLHNHHTTKSFSRTPGK
modifications: labeled with NT647 fluorescent dye (Monolith NT 2nd generation protein labeling kit RED-NHS)
notes: also called Fc fusion QTY CXCR2 variant receptor protein

— patent US20210309720A1 (MIT, published 2021)
